# Data taken from paper PMC4165486 (Vaccine, 2011).
# B1: poly-epitope P181 (P90-DEG-P77-DEG-P27) (peptide)
# chain: TKKLNKELSEGNKELEKLEKNIKELEETNNTLENDIKVEKLKKYNNEISSLKKELDILNEKMGKCTKKRNVEEELHSLRKNYNIINEEIEEIT
# modifications: derivatized diethylene glycol (DEG) linker inserted between P90 and P77 and between P77 and P27
# Assays:
# AUC [1] = target: the molecule itself; test: AUC
# AUC [2] = target: the molecule itself; test: AUC; remark: listed apart in the source
protein,measurement,setting,value
B1,Kd,AUC [1],115 µM
same,stoichiometry N,AUC [2],2
